Among the data in article PMC12880746 are stoichiometry N (ratio CspA:CspC-CPD-His6) and stoichiometry N values, retold here.

Test [1] deals with CspC-CPD-His6 (Clostridioides difficile). Briefly: SEC; elution fraction of a CspC-CPD-His6:CspA co-affinity purification (proteins co-expressed in E. coli) on Superdex 200 Increase 10/300 GL; 200 mM NaCl, 10 mM Tris-HCl pH 7.5, 5% glycerol, 1 mM dithiothreitol; fractions on SDS-PAGE; complex peak re-run on SEC; also run with TA and CaCl2 without difference.
Test [2] addresses CspB-His6 (Clostridioides difficile). The experiment in a line: SEC; individually Ni-affinity-purified Csp-His6 proteins on Superdex 200 Increase 10/300 GL; 200 mM NaCl, 10 mM Tris-HCl pH 7.5, 5% glycerol, 1 mM dithiothreitol; apparent MW from gel filtration standard. On the technique in general: Size exclusion chromatography separates by hydrodynamic size, large species first.
In test [3] the target is CspA-His6 (Clostridioides difficile). Described as above.

As to “untagged CspA (CspA_(583-1132)) (domain or fragment)”, the stoichiometry N (ratio CspA:CspC-CPD-His6) in test [1] worked out at 1. As a reminder, the stoichiometry N is the number of molecules, sites or subunits per partner or assembly. In the case of CspB-His6 (domain or fragment), the stoichiometry N in test [2] was 2. Regarding CspA-His6 (domain or fragment), the stoichiometry N in test [3] was 2.
